B1: TBC1 domain family member 7 (Homo sapiens), Q9P0N9 (parent)
chain: MTEDSQRNFRSVYYEKVGFRGVEEKKSLEILLKDDRLDTEKLCTFSQRFPLPSMYRALVWKVLLGILPPHHESHAKVMMYRKEQYLDVLHALKVVRFVSDATPQAEVYLRMYQLESGKLPRSPSFPLEPDDEVFLAIAKAMEEMVEDSVDCYWITRRFVNQLNTKYRDSLPQLPKAFEQYLNLEDGRLLTHLRMCSAAPKLPYDLWFKRCFAGCLPESSLQRVWDKVVSGSCKILVFVAVEILLTFKIKVMALNSAEKITKFLENIPQDSSDAIVSKAIDLWHKHCGTPVHSS
B2: Homeobox protein PKNOX1 (Homo sapiens), P55347 (parent)
chain: MMATQTLSIDSYQDGQQMQVVTELKTEQDPNCSEPDAEGVSPPPVESQTPMDVDKQAIYRHPLFPLLALLFEKCEQSTQGSEGTTSASFDVDIENFVRKQEKEGKPFFCEDPETDNLMVKAIQVLRIHLLELEKVNELCKDFCSRYIACLKTKMNSETLLSGEPGSPYSPVQSQQIQSAITGTISPQGIVVPASALQQGNVAMATVAGGTVYQPVTVVTPQGQVVTQTLSPGTIRIQNSQLQLQLNQDLSILHQDDGSSKNKRGVLPKHATNVMRSWLFQHIGHPYPTEDEKKQIAAQTNLTLLQVNNWFINARRRILQPMLDSSCSETPKTKKKTAQNRPVQRFWPDSIASGVAQPPPSELTMSEGAVVTITTPVNMNVDSLQSLSSDGATLAVQQVMMAGQSEDESVDSTEEDAGALAPAHISGLVLENSDSLQ
B3: Notch homolog 2 N-terminal-like protein A (Homo sapiens), Q7Z3S9 (parent)
chain: MCVTYHNGTGYCKCPEGFLGEYCQHRDPCEKNRCQNGGTCVAQAMLGKATCRCASGFTGEDCQYSTSHPCFVSRPCLNGGTCHMLSRDTYECTCQVGFTGKECQWTDACLSHPCANGSTCTTVANQFSCKCLTGFTGQKCETDVNECDIPGHCQHGGTCLNLPGSYQCQCLQGFTGQYCDSLYVPCAPSPCVNGGTCRQTGDFTFECNCLPETVRRGTELWERDREVWNGKEHDEN
partner: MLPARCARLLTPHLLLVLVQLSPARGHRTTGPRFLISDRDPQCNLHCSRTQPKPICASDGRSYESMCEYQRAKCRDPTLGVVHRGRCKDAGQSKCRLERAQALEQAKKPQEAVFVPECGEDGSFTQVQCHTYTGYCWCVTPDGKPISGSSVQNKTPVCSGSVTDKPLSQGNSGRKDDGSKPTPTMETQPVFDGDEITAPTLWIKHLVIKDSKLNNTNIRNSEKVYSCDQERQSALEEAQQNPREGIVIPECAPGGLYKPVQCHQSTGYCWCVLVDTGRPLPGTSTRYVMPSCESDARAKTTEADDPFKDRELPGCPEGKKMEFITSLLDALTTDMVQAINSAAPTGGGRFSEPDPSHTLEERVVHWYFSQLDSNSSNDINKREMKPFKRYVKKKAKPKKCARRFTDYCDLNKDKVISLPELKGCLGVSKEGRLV
B4: Syntenin-2 (Homo sapiens), Q9H190 (parent)
chain: MSSLYPSLEDLKVDQAIQAQVRASPKMPALPVQATAISPPPVLYPNLAELENYMGLSLSSQEVQESLLQIPEGDSTAVSGPGPGQMVAPVTGYSLGVRRAEIKPGVREIHLCKDERGKTGLRLRKVDQGLFVQLVQANTPASLVGLRFGDQLLQIDGRDCAGWSSHKAHQVVKKASGDKIVVVVRDRPFQRTVTMHKDSMGHVGFVIKKGKIVSLVKGSSAARNGLLTNHYVCEVDGQNVIGLKDKKIMEILATAGNVVTLTIIPSVIYEHMVKKLPPVLLHHTMDHSIPDA
partner: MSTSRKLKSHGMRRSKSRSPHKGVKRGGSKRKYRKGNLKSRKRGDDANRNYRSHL

Variants of: B1
Conditions: with hook1_human HOOK1, Q9UJC3
Sequence of hook1_human HOOK1, Q9UJC3 (Q9UJC3 whole entry): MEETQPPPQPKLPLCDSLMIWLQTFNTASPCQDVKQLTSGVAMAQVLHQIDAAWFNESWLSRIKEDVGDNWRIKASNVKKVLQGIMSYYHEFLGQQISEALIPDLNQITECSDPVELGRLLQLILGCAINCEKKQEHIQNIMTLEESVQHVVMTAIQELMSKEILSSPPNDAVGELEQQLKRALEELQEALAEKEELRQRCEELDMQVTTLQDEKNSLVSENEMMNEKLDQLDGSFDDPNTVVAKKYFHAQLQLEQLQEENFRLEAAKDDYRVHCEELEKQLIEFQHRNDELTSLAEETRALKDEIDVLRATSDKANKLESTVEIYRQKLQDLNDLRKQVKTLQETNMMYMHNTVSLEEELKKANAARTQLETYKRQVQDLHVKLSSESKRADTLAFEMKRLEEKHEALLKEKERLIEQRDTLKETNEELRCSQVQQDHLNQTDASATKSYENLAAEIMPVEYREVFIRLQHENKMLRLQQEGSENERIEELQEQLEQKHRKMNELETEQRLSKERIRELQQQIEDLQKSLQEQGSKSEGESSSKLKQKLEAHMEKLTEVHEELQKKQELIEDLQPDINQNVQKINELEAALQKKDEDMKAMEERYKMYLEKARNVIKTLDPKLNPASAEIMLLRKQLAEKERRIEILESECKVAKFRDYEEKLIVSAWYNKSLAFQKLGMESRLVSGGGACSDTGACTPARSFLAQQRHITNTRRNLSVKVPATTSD

Row | Variant | effect of a mutation on the interaction
1 | MTEDSQRNFRSVYYEKVGFRGVEEKKSLEILLKDDRLDTEKLCTFSQRFPLPSMYRALVWKVLLGIWPPHHESHAKVMMYRKEQYLDVLHALKVVRFVSDATPQAEVYLRMYQLESGKLPRSPSFPLEPDDEVFLAIAKAMEEMVEDSVDCYWITRRFVNQLNTKYRDSLPQLPKAFEQYLNLEDGRLLTHLRMCSAAPKLPYDLWFKRCFAGCLPESSLQRVWDKVVSGSCKILVFVAVEILLTFKIKVMALNSAEKITKFLENIPQDSSDAIVSKAIDLWHKHCGTPVHSS [L67W] | disrupting interaction strength

Variants of: B1
Conditions: with KRT19, P08727
Sequence of KRT19, P08727 (P08727 whole entry): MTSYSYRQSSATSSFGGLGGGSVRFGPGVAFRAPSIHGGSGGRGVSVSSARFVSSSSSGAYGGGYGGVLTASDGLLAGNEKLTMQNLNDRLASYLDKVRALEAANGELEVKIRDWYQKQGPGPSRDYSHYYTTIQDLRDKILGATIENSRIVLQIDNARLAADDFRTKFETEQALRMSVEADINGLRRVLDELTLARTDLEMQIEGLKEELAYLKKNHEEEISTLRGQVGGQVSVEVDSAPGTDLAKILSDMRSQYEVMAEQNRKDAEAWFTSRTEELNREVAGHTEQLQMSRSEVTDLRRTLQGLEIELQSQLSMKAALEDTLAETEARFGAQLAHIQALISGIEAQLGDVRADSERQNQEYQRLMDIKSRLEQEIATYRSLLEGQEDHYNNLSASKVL

Row | Variant | effect of a mutation on the interaction
2 | MTEDSQRNFRSVYYEKVGFRGVEEKKSLEILLKDDRLDTEKLCTFSQRFPLPSMYRALVWKVLLGIWPPHHESHAKVMMYRKEQYLDVLHALKVVRFVSDATPQAEVYLRMYQLESGKLPRSPSFPLEPDDEVFLAIAKAMEEMVEDSVDCYWITRRFVNQLNTKYRDSLPQLPKAFEQYLNLEDGRLLTHLRMCSAAPKLPYDLWFKRCFAGCLPESSLQRVWDKVVSGSCKILVFVAVEILLTFKIKVMALNSAEKITKFLENIPQDSSDAIVSKAIDLWHKHCGTPVHSS [L67W] | disrupting interaction strength

Variants of: B2
Conditions: with vp37c_human VPS37C

Row | Variant | effect of a mutation on the interaction
3 | MMATQTLSIDSYQDGQQMQVVTELKTEQDPNCSEPDAEGVSPPPVESQTPMDVDKQAIYRHPLFPLLALLFEKCEQSTQGSEGTTSASFDVDIENFVRKQEKEGKPFFCEDPETDNLMVKAIQVLRIHLLELEKVNELCKDFCSRYIACLKTKMNSETLLSGEPGSPYSPVQSQQIQSAITGTISPQGIVVPASALQQGNVAMATVAGGTVYQPVTVVTPQGQVVTQTLSPGTIRIQNSQLQLQLNQDLSILHQDDGSSKNKRGILPKHATNVMRSWLFQHIGHPYPTEDEKKQIAAQTNLTLLQVNNWFINARRRILQPMLDSSCSETPKTKKKTAQNRPVQRFWPDSIASGVAQPPPSELTMSEGAVVTITTPVNMNVDSLQSLSSDGATLAVQQVMMAGQSEDESVDSTEEDAGALAPAHISGLVLENSDSLQ [V265I] | with no effect
4 | MMATQTLSIDSYQDGQQMQVVTELKTEQDPNCSEPDAEGVSPPPVESQTPMDVDKQAIYRHPLFPLLALLFEKCEQSTQGSEGTTSASFDVDIENFVRKQEKDGKPFFCEDPETDNLMVKAIQVLRIHLLELEKVNELCKDFCSRYIACLKTKMNSETLLSGEPGSPYSPVQSQQIQSAITGTISPQGIVVPASALQQGNVAMATVAGGTVYQPVTVVTPQGQVVTQTLSPGTIRIQNSQLQLQLNQDLSILHQDDGSSKNKRGVLPKHATNVMRSWLFQHIGHPYPTEDEKKQIAAQTNLTLLQVNNWFINARRRILQPMLDSSCSETPKTKKKTAQNRPVQRFWPDSIASGVAQPPPSELTMSEGAVVTITTPVNMNVDSLQSLSSDGATLAVQQVMMAGQSEDESVDSTEEDAGALAPAHISGLVLENSDSLQ [E103D] | with no effect

Variants of: B2
Conditions: with vp37c_human VPS37C
Remark: another data set of the same source

Row | Variant | effect of a mutation on the interaction
5 | MMATQTLSIDSYQDGQQMQVVTELKTEQDPNCSEPDAEGVSPPPVESQTPMDVDKQAIYRHPLFPLLALLFEKCEQSTQGSEGTTSASFDVDIENFVRKQEKEGKPFFCEDPETDNLMVKAIQVLRIHLLELEKVNELCKDFCSRYIACLKTKMNSETLLSGEPGSPYSPVQSQQIQSAITGTISPQGIVVPASALQQGNVAMATVAGGTVYQPVTVVTPQGQVVTQTLSPGTIRIQNSQLQLQLNQDLSILHQDDGSSKNKRGILPKHATNVMRSWLFQHIGHPYPTEDEKKQIAAQTNLTLLQVNNWFINARRRILQPMLDSSCSETPKTKKKTAQNRPVQRFWPDSIASGVAQPPPSELTMSEGAVVTITTPVNMNVDSLQSLSSDGATLAVQQVMMAGQSEDESVDSTEEDAGALAPAHISGLVLENSDSLQ [V265I] | with no effect

Variants of: B3
Conditions: with smoc1_human SMOC1, Q9H4F8

Row | Variant | effect of a mutation on the interaction
6 | A115T | with no effect
7 | R74Q | with no effect

Variants of: B4
Conditions: with stp1_human TNP1, P09430

Row | Variant | effect of a mutation on the interaction
8 | MSSLYPSLEDLKVDQAIQAQVRASPKMPALPVQATAISPPPVLYPNLAELENYMGLSLSSQEVQESLLQIPEGDSTAVSGPGPGQMVAPVTGYSLGVRRAEIKPGVREIHLCKDERGKTGLRLRKVDQGLFVQLVQANTPASLVGLRFGDQLLQIDGRDCAGWSSHKAHQVVKKASGDKIVVVVRDRPFQRTVTMHKDSMGHVGFVIKKGKIVSLVKGSSAARNRLLTNHYVCEVDGQNVIGLKDKKIMEILATAGNVVTLTIIPSVIYEHMVKKLPPVLLHHTMDHSIPDA [G225R] | disrupting interaction strength
9 | MSSLYPSLEDLKVDQAIQAQVRASPKMPALPVQATAISPPPVLYPNLAELENYMGLSLSSQEVQESLLQIPEGDSTAVSGPGPGQMVAPVTGYSLGVRRAEIKPGVREIHLCKDERGKTGLRLRKVDQGLFVQLVQANTPASLVGLRFGDQLLQIDGRDCAGWSSHKAHQVVKKASGDKIVVVVRDRPFQRTVTMHKDSMGHVGFVIKKGKIVSLVKGSSAARNGLLTNHYVCEVDGQNVIRLKDKKIMEILATAGNVVTLTIIPSVIYEHMVKKLPPVLLHHTMDHSIPDA [G242R] | disrupting interaction strength
10 | MSSLYPSLEDLKVDQAIQAQVRASPKMPALPVQATAISPPPVLYPNLAELENYMGLSLSSQEVQESLLQIPEGDSTAVSGPGPGQMVAPVTGYSLGVRRAEIKPGVREIHLCKDERGKTGLRLRKVDQGLFVQLVQANTPASLVGLRFGDQLLQIDGRDCAGWSSHKAHQVVKKASGDKIVMVVRDRPFQRTVTMHKDSMGHVGFVIKKGKIVSLVKGSSAARNGLLTNHYVCEVDGQNVIGLKDKKIMEILATAGNVVTLTIIPSVIYEHMVKKLPPVLLHHTMDHSIPDA [V182M] | disrupting interaction strength
